These are literature values, as cited in article PMC4554539.

Data set [1] addresses IL18 receptor (Homo sapiens) (UniProt Q13478). Put plainly: binding to transfected COS-1 cells.
Data set [2] shares this target. The experiment in a line: binding to L428 cells.

IL18, sequence (Q14116 37-193): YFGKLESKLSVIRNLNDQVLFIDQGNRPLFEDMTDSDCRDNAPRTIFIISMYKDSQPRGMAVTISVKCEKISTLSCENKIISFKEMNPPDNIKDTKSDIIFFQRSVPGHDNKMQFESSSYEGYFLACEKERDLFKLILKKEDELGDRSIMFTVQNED
IL18 receptor (Homo sapiens), sequence (Q13478 19-541): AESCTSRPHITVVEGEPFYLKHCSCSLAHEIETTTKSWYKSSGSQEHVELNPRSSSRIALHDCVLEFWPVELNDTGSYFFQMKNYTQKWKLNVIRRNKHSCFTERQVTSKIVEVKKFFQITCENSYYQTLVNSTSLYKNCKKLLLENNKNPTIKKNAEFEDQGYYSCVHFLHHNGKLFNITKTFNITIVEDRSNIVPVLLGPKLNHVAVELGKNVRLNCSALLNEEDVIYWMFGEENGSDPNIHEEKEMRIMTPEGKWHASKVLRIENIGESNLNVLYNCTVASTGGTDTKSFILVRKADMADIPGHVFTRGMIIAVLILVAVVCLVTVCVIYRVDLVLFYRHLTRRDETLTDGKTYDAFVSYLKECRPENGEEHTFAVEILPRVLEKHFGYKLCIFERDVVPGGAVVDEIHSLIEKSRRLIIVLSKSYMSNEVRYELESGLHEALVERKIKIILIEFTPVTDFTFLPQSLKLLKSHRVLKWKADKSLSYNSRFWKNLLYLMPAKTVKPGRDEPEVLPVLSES

On to IL18 (from UniProt Q14116), for which the Kd was 46 nM in data set [1] and 18.5 nM in data set [2].
